Assay results reported in patent US20110236380A1 (published 2011).

Legend:
Cynomolgus monkey IL-13 [1] = target: T1, Cynomolgus monkey IL-13 (cynomolgus monkey, UniProt Q0PW92 21-132); test: Biacore SPR, biotinylated IL-13 on streptavidin chip, dAb as analyte, 1:1 model, 25 C
T1 construct: Biotinylated and captured on a streptavidin chip in the Biacore assays; also called cyno IL-13; cynomolgous IL-13
Protocol: (§1) The binding affinities of purified DOM10 dAbs to both human and cyno IL-13 were assessed by Biacore analysis. Analysis was carried out using biotinylated IL-13. About 150 RU of biotinylated IL-13 was coated to a streptavidin (SA) chip (Biacore, GE healthcare). The surface was regenerated back to baseline using 0.1 M Glycine pH 2. dAbs were passed over this surface at defined concentrations using a flow rate of 50 μl/min. Data were analyzed using BIAevaluation software (Biacore, GE Healthcare) and fitted to the 1:1 model of binding. The binding data fitted well to the 1:1 model for all DOM10 dAbs. Biacore runs were carried out at 25° C.

human IL-13 [2] = target: T2, human IL-13 (human, UniProt P35225 35-146, limits assumed); test: as above
T2 construct: Biotinylated and captured on a streptavidin chip in the Biacore assays; not biotinylated (IL-13, GSK) in the ELISA and HEK Blue-STAT6 assays; also called human interleukin-13; IL-13 (GSK)
Protocol: as §1

human IL-13 [3] = target: T2, human IL-13; test: DOM10 sandwich ELISA: dAb dilution series mixed with 150 pg/ml human IL-13, loss of IL-13 detection by the kit antibodies
Protocol: dAbs were also tested in DOM10 ELISA to assess the potency against human IL-13 and cell based HEK Blue-STAT6 (HEK STAT) assays to assess the potency against human, cyno and Rhesus IL-13. DOM10 ELISA measures the ability of DOM10 dAbs to bind IL-13 and prevent its binding to an IL-13 detection antibody. A MAXISORP™ plate (high protein binding ELISA plate, Nunc, Denmark) is coated overnight with 2.5 μg/ml coating antibody (Module Set, Bender MedSystems, Vienna, Austria), then washed once with 0.1% (v/v) Tween 20 in PBS before blocking with 0.5% (w/v) BSA 0.05% (v/v) Tween 20 in PBS for 2 hours at room temperature. The plate is washed twice as previously detailed before the addition of 150 pg/ml IL-13 (GSK) mixed with a dilution series of DOM10 dAb (i.e., an anti-IL-13 dAb) and incubated for 1 hour. The plate is washed twice before binding of IL-13 to the capture antibody is detected using biotin conjugated detection antibody (Module Set, Bender Medsystems), followed by peroxidase labelled Streptavidin (Module Set, Bender MedSystems). Finally the plate is washed three times before incubation with TMB substrate (KPL, Gaithersburg, USA), and the reaction stopped by the addition of HCl and the absorbance read at 450 nm. Anti-IL-13 dAb activity causes a decrease in IL-13 binding and therefore a decrease in absorbance compared with the IL-13 only control.

Cynomolgus monkey IL-13 [4] = target: T1, Cynomolgus monkey IL-13; test: cell-based or functional assay
human IL-13 [5] = target: T2, human IL-13; test: cell-based or functional assay
rhesus IL-13 = rhesus IL-13 (rhesus, UniProt Q864V6 19-132, limits assumed); test: cell-based or functional assay
Sequence of rhesus IL-13 (Q864V6 19-132 limits assumed): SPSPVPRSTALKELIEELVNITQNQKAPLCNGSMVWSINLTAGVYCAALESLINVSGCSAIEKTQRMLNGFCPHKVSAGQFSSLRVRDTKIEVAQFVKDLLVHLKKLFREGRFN

T2 sequence (P35225 35-146 limits assumed): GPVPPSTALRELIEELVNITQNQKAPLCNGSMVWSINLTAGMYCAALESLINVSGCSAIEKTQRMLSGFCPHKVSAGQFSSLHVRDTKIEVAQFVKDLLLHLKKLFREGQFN
T1 sequence (Q0PW92 entry or part of it): as the sequence (P35225 35-146 limits assumed) above, with G1S, R10K, M42V, S67N, H83R, L100V counted along it

Binder | Kd (Cynomolgus monkey IL-13 [1]) [nM] | Kd (human IL-13 [2]) [nM] | EC50 (human IL-13 [3]) [nM] | HEK assay Cyno EC50 (Cynomolgus monkey IL-13 [4]) [nM] | HEK assay Human EC50 (human IL-13 [5]) [nM] | HEK assay Rhesus EC50 (rhesus IL-13) [nM]
DOM10-53-567 (other) VH: GVQLLESGGGLVQPGGSLRLSCAASGFVFAWYDMGWVRQAPGKGLEWVSSIDWHGEVTYYADSVKGRFTISRDNSKNTLYLQMNSLRAEDTAVYYCATAEDEPGYDYWGQGTLVTVSS | 2.6 | 0.072 | 0.021 | 5.1 | 0.31 | 2.8
DOM10-53-616 (other) VH: GVQLLESGGGLVQPGGSLRLSCAASGFVFPWYDMGWVRQAPGKGLEWVSSIDWHGKITYYADSVKGRFTISRDNSKNTLYLQMNSLRAEDTAVYYCATAEDEPGYDYWGQGTLVTVSS | 3.2 | 0.13 | 0.048 | 5.9 | 2.9 | 7.6
DOM10-53-474 (other, Anti-IL-13 immunoglobulin single variable domain (dAb), monomer) VH: GVQLLESGGGLVQPGGSLRLSCAASGFTFAWYDMGWVRQAPGKGLEWVSSIDWHGEVTYYADSVKGRFTISRDNSKNTLYLQMNSLRAEDTAVYYCATAEDEPGYDYWGQGTLVTVSS | 9.3 | 0.259 | 0.217 | 30.1 | 2 | 30.2

Other lines, results leading:

Kd (Cynomolgus monkey IL-13 [1]) [nM] | Kd (human IL-13 [2]) [nM] | EC50 (human IL-13 [3]) [nM] | HEK assay Cyno EC50 (Cynomolgus monkey IL-13 [4]) [nM] | HEK assay Human EC50 (human IL-13 [5]) [nM] | HEK assay Rhesus EC50 (rhesus IL-13) [nM] | Binder
2.1 | 0.094 | 0.125 | 5.9 | 1 | 11.4 | DOM10-53-546 (other) VH: GVQLLESGGGLVQPGGSLRLSCAASGFVFPWYDMGWVRQAPGKGLEWVSSIDWKGGKTYYADSVKGRFTISRDNSKNTLYLQMNSLRAEDTAVYYCATAEDEPGYDYWGQGTLVTVSS
1.6 | 0.07 |  | 8.8 | 0.62 | 8.1 | DOM10-53-568 (other) VH: GVQLLESGGGLVQPGGSLRLSCAASGFVFAWYDMGWVRQAPGKGLEWVSSIDWHGKITYYADSVKGRFTISRDNSKNTLYLQMNSLRAEDTAVYYCATAEDEPGYDYWGQGTLVTVSS
